Experimental data: publication PMC11508141

Molecular target: T1, DJ-1 protein with the 6X-His tag, Q99497
T1 chain: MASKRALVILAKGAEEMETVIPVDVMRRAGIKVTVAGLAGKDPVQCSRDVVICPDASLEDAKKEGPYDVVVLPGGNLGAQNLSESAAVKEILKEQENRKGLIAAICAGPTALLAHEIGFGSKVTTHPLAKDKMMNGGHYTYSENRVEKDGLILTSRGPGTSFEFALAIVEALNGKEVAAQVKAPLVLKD
Assay: cross-linking; purified DJ-1 treated with 25 mM DSS at 25 °C for 30 min, with or without P1 or P2, then SDS-PAGE (12% gel)
Conditions: remark: other sources report otherwise

stoichiometry N: 2
B1: DJ-1 protein with the 6X-His tag, Q99497 1-189 (enzyme)
chain: MASKRALVILAKGAEEMETVIPVDVMRRAGIKVTVAGLAGKDPVQCSRDVVICPDASLEDAKKEGPYDVVVLPGGNLGAQNLSESAAVKEILKEQENRKGLIAAICAGPTALLAHEIGFGSKVTTHPLAKDKMMNGGHYTYSENRVEKDGLILTSRGPGTSFEFALAIVEALNGKEVAAQVKAPLVLKD
